From patent US20150203577A1 (Chugai, published 2015)

Columns and labels:
mouse FcγRII = target: T1, mouse FcγRII (mouse, UniProt P08101 30-210); test: SPR Biacore 4000, KD ratio
T1 construct: also called mFcγRII; mFcgRII
T1 sequence: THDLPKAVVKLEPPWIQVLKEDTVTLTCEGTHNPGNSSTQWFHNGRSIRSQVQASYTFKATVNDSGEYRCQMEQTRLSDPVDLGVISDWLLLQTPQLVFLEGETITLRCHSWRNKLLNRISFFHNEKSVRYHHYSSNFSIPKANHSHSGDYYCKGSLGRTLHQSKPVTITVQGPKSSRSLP

mouse FcγRIII = target: T2, mouse FcγRIII (mouse, UniProt P08508 31-215); test: SPR Biacore 4000, KD ratio
T2 construct: also called mFcγRIII; mFcgRIII
T2 chain: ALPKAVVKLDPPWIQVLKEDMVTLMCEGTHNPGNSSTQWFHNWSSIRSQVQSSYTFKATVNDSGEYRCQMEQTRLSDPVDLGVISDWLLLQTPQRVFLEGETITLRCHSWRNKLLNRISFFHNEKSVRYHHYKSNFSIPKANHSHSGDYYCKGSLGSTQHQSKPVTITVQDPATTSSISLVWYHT

Binder | relative mFcγRII-binding activity (mIgG1 = 1) (mouse FcγRII) | relative mFcγRIII-binding activity (mIgG1 = 1) (mouse FcγRIII)
MB054 (antibody, mouse IgG1, kappa, copies: 2 + 2) heavy: QVQLQESGPGLVKPSETLSLTCAVSGHSISHDHAWSWVRQPPGEGLEWIGFISYSGITNYNPSLQGRVTISRDNSKNTLYLQMNSLRAEDTAVYYCARSLARTTAMDYWGEGTLVTVSSAKTTPPSVYPLAPGSAAQTNSMVTLGCLVKGYFPEPVTVTWNSGSLSSGVHTFPAVLQSDLYTLSSSVTVPSSTWPSETVTCNVAHPASSTKVDKKIVPRDCGCKPCICTVYEVSSVFIFPPKPKDVLTITLTPKVTCVVVDISKDDPEVQFSWFVDDVEVHTAQTQPREEQFNSTFRSVSELPIMHQDWLNGKEFKCRVNSAAFPAPIEKTISKTKGRPKAPQVYTIPPPKEQMAKDKVSLTCMITDFFPEDITVEWQWNGQPAENYKNTQPIMDTDGSYFVYSKLNVQKSNWEAGNTFTCSVLHEGLHNHHTEKSLSHSPGK light: not shown | 1.75 fold | 1.11 fold
MB093 (antibody, mouse IgG1, kappa, copies: 2 + 2) heavy: QVQLQESGPGLVKPSETLSLTCAVSGHSISHDHAWSWVRQPPGEGLEWIGFISYSGITNYNPSLQGRVTISRDNSKNTLYLQMNSLRAEDTAVYYCARSLARTTAMDYWGEGTLVTVSSAKTTPPSVYPLAPGSAAQTNSMVTLGCLVKGYFPEPVTVTWNSGSLSSGVHTFPAVLQSDLYTLSSSVTVPSSTWPSETVTCNVAHPASSTKVDKKIVPRDCGCKPCICTVPEVESVFIFPPKPKDVLTITLTPKVTCVVVDISKDDPEVQFSWFVDDVEVHTAQTQPREEQFNSTFRSVSELPIMHQDWLNGKEFKCRVNSAAFPAPIEKTISKTKGRPKAPQVYTIPPPKEQMAKDKVSLTCMITDFFPEDITVEWQWNGQPAENYKNTQPIMDTDGSYFVYSKLNVQKSNWEAGNTFTCSVLHEGLHNHHTEKSLSHSPGK light: not shown | 2.09 fold | 0.56 fold
MB132 (antibody, mouse IgG1, kappa, copies: 2 + 2) heavy: QVQLQESGPGLVKPSETLSLTCAVSGHSISHDHAWSWVRQPPGEGLEWIGFISYSGITNYNPSLQGRVTISRDNSKNTLYLQMNSLRAEDTAVYYCARSLARTTAMDYWGEGTLVTVSSAKTTPPSVYPLAPGSAAQTNSMVTLGCLVKGYFPEPVTVTWNSGSLSSGVHTFPAVLQSDLYTLSSSVTVPSSTWPSETVTCNVAHPASSTKVDKKIVPRDCGCKPCICTVPEVSSHFIFPPKPKDVLTITLTPKVTCVVVDISKDDPEVQFSWFVDDVEVHTAQTQPREEQFNSTFRSVSELPIMHQDWLNGKEFKCRVNSAAFPAPIEKTISKTKGRPKAPQVYTIPPPKEQMAKDKVSLTCMITDFFPEDITVEWQWNGQPAENYKNTQPIMDTDGSYFVYSKLNVQKSNWEAGNTFTCSVLHEGLHNHHTEKSLSHSPGK light: not shown | 2.12 fold | 1.39 fold
MB129 (antibody, mouse IgG1, kappa, copies: 2 + 2) heavy: QVQLQESGPGLVKPSETLSLTCAVSGHSISHDHAWSWVRQPPGEGLEWIGFISYSGITNYNPSLQGRVTISRDNSKNTLYLQMNSLRAEDTAVYYCARSLARTTAMDYWGEGTLVTVSSAKTTPPSVYPLAPGSAAQTNSMVTLGCLVKGYFPEPVTVTWNSGSLSSGVHTFPAVLQSDLYTLSSSVTVPSSTWPSETVTCNVAHPASSTKVDKKIVPRDCGCKPCICTVPEVSSEFIFPPKPKDVLTITLTPKVTCVVVDISKDDPEVQFSWFVDDVEVHTAQTQPREEQFNSTFRSVSELPIMHQDWLNGKEFKCRVNSAAFPAPIEKTISKTKGRPKAPQVYTIPPPKEQMAKDKVSLTCMITDFFPEDITVEWQWNGQPAENYKNTQPIMDTDGSYFVYSKLNVQKSNWEAGNTFTCSVLHEGLHNHHTEKSLSHSPGK light: not shown | 6.19 fold | 2.42 fold
MB111 (antibody, mouse IgG1, kappa, copies: 2 + 2) heavy: QVQLQESGPGLVKPSETLSLTCAVSGHSISHDHAWSWVRQPPGEGLEWIGFISYSGITNYNPSLQGRVTISRDNSKNTLYLQMNSLRAEDTAVYYCARSLARTTAMDYWGEGTLVTVSSAKTTPPSVYPLAPGSAAQTNSMVTLGCLVKGYFPEPVTVTWNSGSLSSGVHTFPAVLQSDLYTLSSSVTVPSSTWPSETVTCNVAHPASSTKVDKKIVPRDCGCKPCICTVPEVSEVFIFPPKPKDVLTITLTPKVTCVVVDISKDDPEVQFSWFVDDVEVHTAQTQPREEQFNSTFRSVSELPIMHQDWLNGKEFKCRVNSAAFPAPIEKTISKTKGRPKAPQVYTIPPPKEQMAKDKVSLTCMITDFFPEDITVEWQWNGQPAENYKNTQPIMDTDGSYFVYSKLNVQKSNWEAGNTFTCSVLHEGLHNHHTEKSLSHSPGK light: not shown | 5.01 fold | 1.11 fold
MB121 (antibody, mouse IgG1, kappa, copies: 2 + 2) heavy: QVQLQESGPGLVKPSETLSLTCAVSGHSISHDHAWSWVRQPPGEGLEWIGFISYSGITNYNPSLQGRVTISRDNSKNTLYLQMNSLRAEDTAVYYCARSLARTTAMDYWGEGTLVTVSSAKTTPPSVYPLAPGSAAQTNSMVTLGCLVKGYFPEPVTVTWNSGSLSSGVHTFPAVLQSDLYTLSSSVTVPSSTWPSETVTCNVAHPASSTKVDKKIVPRDCGCKPCICTVPEVSQVFIFPPKPKDVLTITLTPKVTCVVVDISKDDPEVQFSWFVDDVEVHTAQTQPREEQFNSTFRSVSELPIMHQDWLNGKEFKCRVNSAAFPAPIEKTISKTKGRPKAPQVYTIPPPKEQMAKDKVSLTCMITDFFPEDITVEWQWNGQPAENYKNTQPIMDTDGSYFVYSKLNVQKSNWEAGNTFTCSVLHEGLHNHHTEKSLSHSPGK light: not shown | 1.48 fold | 0.94 fold
MB103 (antibody, mouse IgG1, kappa, copies: 2 + 2) heavy: QVQLQESGPGLVKPSETLSLTCAVSGHSISHDHAWSWVRQPPGEGLEWIGFISYSGITNYNPSLQGRVTISRDNSKNTLYLQMNSLRAEDTAVYYCARSLARTTAMDYWGEGTLVTVSSAKTTPPSVYPLAPGSAAQTNSMVTLGCLVKGYFPEPVTVTWNSGSLSSGVHTFPAVLQSDLYTLSSSVTVPSSTWPSETVTCNVAHPASSTKVDKKIVPRDCGCKPCICTVPEVQSVFIFPPKPKDVLTITLTPKVTCVVVDISKDDPEVQFSWFVDDVEVHTAQTQPREEQFNSTFRSVSELPIMHQDWLNGKEFKCRVNSAAFPAPIEKTISKTKGRPKAPQVYTIPPPKEQMAKDKVSLTCMITDFFPEDITVEWQWNGQPAENYKNTQPIMDTDGSYFVYSKLNVQKSNWEAGNTFTCSVLHEGLHNHHTEKSLSHSPGK light: not shown | 1.27 fold | 1.05 fold
MB126 (antibody, mouse IgG1, kappa, copies: 2 + 2) heavy: QVQLQESGPGLVKPSETLSLTCAVSGHSISHDHAWSWVRQPPGEGLEWIGFISYSGITNYNPSLQGRVTISRDNSKNTLYLQMNSLRAEDTAVYYCARSLARTTAMDYWGEGTLVTVSSAKTTPPSVYPLAPGSAAQTNSMVTLGCLVKGYFPEPVTVTWNSGSLSSGVHTFPAVLQSDLYTLSSSVTVPSSTWPSETVTCNVAHPASSTKVDKKIVPRDCGCKPCICTVPEVSYVFIFPPKPKDVLTITLTPKVTCVVVDISKDDPEVQFSWFVDDVEVHTAQTQPREEQFNSTFRSVSELPIMHQDWLNGKEFKCRVNSAAFPAPIEKTISKTKGRPKAPQVYTIPPPKEQMAKDKVSLTCMITDFFPEDITVEWQWNGQPAENYKNTQPIMDTDGSYFVYSKLNVQKSNWEAGNTFTCSVLHEGLHNHHTEKSLSHSPGK light: not shown | 1.58 fold | 0.94 fold
MB118 (antibody, mouse IgG1, kappa, copies: 2 + 2) heavy: QVQLQESGPGLVKPSETLSLTCAVSGHSISHDHAWSWVRQPPGEGLEWIGFISYSGITNYNPSLQGRVTISRDNSKNTLYLQMNSLRAEDTAVYYCARSLARTTAMDYWGEGTLVTVSSAKTTPPSVYPLAPGSAAQTNSMVTLGCLVKGYFPEPVTVTWNSGSLSSGVHTFPAVLQSDLYTLSSSVTVPSSTWPSETVTCNVAHPASSTKVDKKIVPRDCGCKPCICTVPEVSMVFIFPPKPKDVLTITLTPKVTCVVVDISKDDPEVQFSWFVDDVEVHTAQTQPREEQFNSTFRSVSELPIMHQDWLNGKEFKCRVNSAAFPAPIEKTISKTKGRPKAPQVYTIPPPKEQMAKDKVSLTCMITDFFPEDITVEWQWNGQPAENYKNTQPIMDTDGSYFVYSKLNVQKSNWEAGNTFTCSVLHEGLHNHHTEKSLSHSPGK light: not shown | 1.74 fold | 0.99 fold
MB139 (antibody, mouse IgG1, kappa, copies: 2 + 2) heavy: QVQLQESGPGLVKPSETLSLTCAVSGHSISHDHAWSWVRQPPGEGLEWIGFISYSGITNYNPSLQGRVTISRDNSKNTLYLQMNSLRAEDTAVYYCARSLARTTAMDYWGEGTLVTVSSAKTTPPSVYPLAPGSAAQTNSMVTLGCLVKGYFPEPVTVTWNSGSLSSGVHTFPAVLQSDLYTLSSSVTVPSSTWPSETVTCNVAHPASSTKVDKKIVPRDCGCKPCICTVPEVSSQFIFPPKPKDVLTITLTPKVTCVVVDISKDDPEVQFSWFVDDVEVHTAQTQPREEQFNSTFRSVSELPIMHQDWLNGKEFKCRVNSAAFPAPIEKTISKTKGRPKAPQVYTIPPPKEQMAKDKVSLTCMITDFFPEDITVEWQWNGQPAENYKNTQPIMDTDGSYFVYSKLNVQKSNWEAGNTFTCSVLHEGLHNHHTEKSLSHSPGK light: not shown | 1.54 fold | 1.2 fold
MB102 (antibody, mouse IgG1, kappa, copies: 2 + 2) heavy: QVQLQESGPGLVKPSETLSLTCAVSGHSISHDHAWSWVRQPPGEGLEWIGFISYSGITNYNPSLQGRVTISRDNSKNTLYLQMNSLRAEDTAVYYCARSLARTTAMDYWGEGTLVTVSSAKTTPPSVYPLAPGSAAQTNSMVTLGCLVKGYFPEPVTVTWNSGSLSSGVHTFPAVLQSDLYTLSSSVTVPSSTWPSETVTCNVAHPASSTKVDKKIVPRDCGCKPCICTVPEVPSVFIFPPKPKDVLTITLTPKVTCVVVDISKDDPEVQFSWFVDDVEVHTAQTQPREEQFNSTFRSVSELPIMHQDWLNGKEFKCRVNSAAFPAPIEKTISKTKGRPKAPQVYTIPPPKEQMAKDKVSLTCMITDFFPEDITVEWQWNGQPAENYKNTQPIMDTDGSYFVYSKLNVQKSNWEAGNTFTCSVLHEGLHNHHTEKSLSHSPGK light: not shown | 2.62 fold | 2.37 fold
